{"source": "the Human Domainome abundance scans (Beltran et al. 2025)", "parents": {"B1": {"name": "Myocardin, residues 363 to 406; numbered along this chain, Q8IZQ8 (parent)", "chain": "KPGPLPPNLDDLKVSELRQQLRIRGLPVSGTKTALMDRLRPFQD"}}, "note": "± gives the uncertainty stated by the source.", "data": [{"variants_of": "B1", "assay": "abundance fitness (aPCA) (normalised: wild type 0, dead -1); higher = more abundant; growth selection in yeast, the domain comes from the species named", "conditions": "Homo sapiens", "values": [{"variant": "KPGPLPPNLDDLKVSELRQQLRIRGLPVSGTKTALMPRLRPFQD", "abundance fitness": "-0.966 ± 0.15"}, {"variant": "KPGPLPPNLDDLKVSELRQQLRIRGLPVSGTKTALMDRKRPFQD", "abundance fitness": "-0.595 ± 0.19"}, {"variant": "KPGPLPPNLDDLKVSELRQQLRIRGLPVSGTKTALMDRHRPFQD", "abundance fitness": "-0.611 ± 0.17"}, {"variant": "KPGPLPPNLDDLKVSELRQQLRIRGLPVSGTKTALMDRCRPFQD", "abundance fitness": "-0.785 ± 0.27"}, {"variant": "KPGPLPPNLDDLKVSELRQQLRIRGLPVSGTKTALMDRIRPFQD", "abundance fitness": "-0.474 ± 0.18"}, {"variant": "KPGPLPPNLDDLKVSELRQQLRIRGLPVSGTKTALMDRERPFQD", "abundance fitness": "-0.562 ± 0.1"}, {"variant": "KPGPLPPNLDDLKVSELRQQLRIRGLPVSGTKTALMDRRRPFQD", "abundance fitness": "-0.776 ± 0.081"}, {"variant": "KPGPLPPNLDDLKVSELRQQLRIRGLPVSGTKTALMDRARPFQD", "abundance fitness": "-0.641 ± 0.099"}, {"variant": "KPGPLPPNLDDLKVSELRQQLRIRGLPVSGTKTALMDRYRPFQD", "abundance fitness": "-0.505 ± 0.24"}, {"variant": "KPGPLPPNLDDLKVSELRQQLRIRGLPVSGTKTALMDRVRPFQD", "abundance fitness": "-0.594 ± 0.092"}, {"variant": "KPGPLPPNLDDLKVSELRQQLRIRGLPVSGTKTALMDRSRPFQD", "abundance fitness": "-0.601 ± 0.13"}, {"variant": "KPGPLPPNLDDLKVSELRQQLRIRGLPVSGTKTALMDRTRPFQD", "abundance fitness": "-0.625 ± 0.14"}, {"variant": "KPGPLPPNLDDLKVSELRQQLRIRGLPVSGTKTALMDRDRPFQD", "abundance fitness": "-0.283 ± 0.16"}, {"variant": "KPGPLPPNLDDLKVSELRQQLRIRGLPVSGTKTALMDRWRPFQD", "abundance fitness": "-0.77 ± 0.1"}, {"variant": "KPGPLPPNLDDLKVSELRQQLRIRGLPVSGTKTALMDRQRPFQD", "abundance fitness": "-0.465 ± 0.14"}, {"variant": "KPGPLPPNLDDLKVSELRQQLRIRGLPVSGTKTALMDRGRPFQD", "abundance fitness": "-0.528 ± 0.1"}, {"variant": "KPGPLPPNLDDLKVSELRQQLRIRGLPVSGTKTALMDRMRPFQD", "abundance fitness": "-0.409 ± 0.12"}, {"variant": "KPGPLPPNLDDLKVSELRQQLRIRGLPVSGTKTALMDRFRPFQD", "abundance fitness": "-0.755 ± 0.35"}, {"variant": "KPGPLPPNLDDLKVSELRQQLRIRGLPVSGTKTALMDRPRPFQD", "abundance fitness": "-0.373 ± 0.084"}, {"variant": "KPGPLPPNLDDLKVSELRQQLRIRGLPVSGTKTALMDRLRPFKD", "abundance fitness": "-0.503 ± 0.29"}, {"variant": "KPGPLPPNLDDLKVSELRQQLRIRGLPVSGTKTALMDRLRPFTD", "abundance fitness": "0.1 ± 0.094"}, {"variant": "KPGPLPPNLDDLKVSELRQQLRIRGLPVSGTKTALMDRLRPFCD", "abundance fitness": "-0.005 ± 0.13"}, {"variant": "KPGPLPPNLDDLKVSELRQQLRIRGLPVSGTKTALMDRLRPFMD", "abundance fitness": "-0.031 ± 0.07"}, {"variant": "KPGPLPPNLDDLKVSELRQQLRIRGLPVSGTKTALMDRLRPFPD", "abundance fitness": "-0.625 ± 0.1"}, {"variant": "KPGPLPPNLDDLKVSELRQQLRIRGLPVSGTKTALMDRLRPFID", "abundance fitness": "-0.109 ± 0.14"}, {"variant": "KPGPLPPNLDDLKVSELRQQLRIRGLPVSGTKTALMDRLRPFHD", "abundance fitness": "-0.376 ± 0.17"}, {"variant": "KPGPLPPNLDDLKVSELRQQLRIRGLPVSGTKTALMDRLRPFFD", "abundance fitness": "0.028 ± 0.21"}, {"variant": "KPGPLPPNLDDLKVSELRQQLRIRGLPVSGTKTALMDRLRPFGD", "abundance fitness": "-0.152 ± 0.064"}, {"variant": "KPGPLPPNLDDLKVSELRQQLRIRGLPVSGTKTALMDRLRPFSD", "abundance fitness": "-0.061 ± 0.083"}, {"variant": "KPGPLPPNLDDLKVSELRQQLRIRGLPVSGTKTALMDRLRPFWD", "abundance fitness": "-0.106 ± 0.074"}, {"variant": "KPGPLPPNLDDLKVSELRQQLRIRGLPVSGTKTALMDRLRPFND", "abundance fitness": "-0.213 ± 0.18"}, {"variant": "KPGPLPPNLDDLKVSELRQQLRIRGLPVSGTKTALMDRLRPFRD", "abundance fitness": "-0.232 ± 0.059"}, {"variant": "KPGPLPPNLDDLKVSELRQQLRIRGLPVSGTKTALMDRLRPFAD", "abundance fitness": "-0.042 ± 0.1"}, {"variant": "KPGPLPPNLDDLKVSELRQQLRIRGLPVSGTKTALMDRLRPVQD", "abundance fitness": "-0.211 ± 0.074"}, {"variant": "KPGPLPPNLDDLKVSELRQQLRIRGLPVSGTKTALMDRLRPHQD", "abundance fitness": "0.139 ± 0.12"}, {"variant": "KPGPLPPNLDDLKVSELRQQLRIRGLPVSGTKTALMDRLRPPQD", "abundance fitness": "-0.02 ± 0.086"}, {"variant": "KPGPLPPNLDDLKVSELRQQLRIRGLPVSGTKTALMDRLRPYQD", "abundance fitness": "-0.102 ± 0.1"}, {"variant": "KPGPLPPNLDDLKVSELRQQLRIRGLPVSGTKTALMDRLRPQQD", "abundance fitness": "-0.06 ± 0.093"}, {"variant": "KPGPLPPNLDDLKVSELRQQLRIRGLPVSGTKTALMDRLRPNQD", "abundance fitness": "-0.736 ± 0.36"}, {"variant": "KPGPLPPNLDDLKVSELRQQLRIRGLPVSGTKTALMDRLRPWQD", "abundance fitness": "-0.124 ± 0.065"}, {"variant": "KPGPLPPNLDDLKVSELRQQLRIRGLPVSGTKTALMDRLRPAQD", "abundance fitness": "0.067 ± 0.062"}, {"variant": "KPGPLPPNLDDLKVSELRQQLRIRGLPVSGTKTALMDRLRPMQD", "abundance fitness": "-0.242 ± 0.1"}, {"variant": "KPGPLPPNLDDLKVSELRQQLRIRGLPVSGTKTALMDRLRPEQD", "abundance fitness": "-0.148 ± 0.086"}, {"variant": "KPGPLPPNLDDLKVSELRQQLRIRGLPVSGTKTALMDRLRPLQD", "abundance fitness": "0.111 ± 0.068"}, {"variant": "KPGPLPPNLDDLKVSELRQQLRIRGLPVSGTKTALMDRLRPDQD", "abundance fitness": "-0.061 ± 0.18"}, {"variant": "KPGPLPPNLDDLKVSELRQQLRIRGLPVSGTKTALMDRLRPGQD", "abundance fitness": "-0.278 ± 0.057"}, {"variant": "KPGPLPPNLDDLKVSELRQQLRIRGLPVSGTKTALMDRLRPRQD", "abundance fitness": "-0.12 ± 0.07"}, {"variant": "KPGPLPPNLDDLKVSELRQQLRIRGLPVSGTKTALMDRLRPCQD", "abundance fitness": "-0.138 ± 0.082"}, {"variant": "KPGPLPPNLDDLKVSELRQQLRIRGLPVSGTKTALMDRLRPSQD", "abundance fitness": "0.03 ± 0.092"}, {"variant": "KPGPLPPNLDDLKVSELRQQLRIRGLPVSGTKTALMDRLRPKQD", "abundance fitness": "-0.09 ± 0.14"}, {"variant": "KPGPLPPNLDDLKVSELRQQLRIRGLPVSGTKTALMDRLRPFQA", "abundance fitness": "-0.086 ± 0.13"}, {"variant": "KPGPLPPNLDDLKVSELRQQLRIRGLPVSGTKTALMDRLRPFQN", "abundance fitness": "-0.236 ± 0.23"}, {"variant": "KPGPLPPNLDDLKVSELRQQLRIRGLPVSGTKTALMDRLRPFQL", "abundance fitness": "-0.494 ± 0.22"}, {"variant": "KPGPLPPNLDDLKVSELRQQLRIRGLPVSGTKTALMDRLRPFQG", "abundance fitness": "0 ± 0.064"}, {"variant": "KPGPLPPNLDDLKVSELRQQLRIRGLPVSGTKTALMDRLRPFQE", "abundance fitness": "-0.031 ± 0.19"}, {"variant": "KPGPLPPNLDDLKVSELRQQLRIRGLPVSGTKTALMDRLRPFQK", "abundance fitness": "0.195 ± 0.14"}, {"variant": "KPGPLPPNLDDLKVSELRQQLRIRGLPVSGTKTALMDRLRPFQC", "abundance fitness": "-0.297 ± 0.21"}, {"variant": "KPGPLPPNLDDLKVSELRQQLRIRGLPVSGTKTALMDRLRPFQF", "abundance fitness": "-0.325 ± 0.25"}]}]}
